Reference: paper PMC5602324
Like-named read-outs stand apart in the source and are kept apart here. Each block holds one molecule with its values, some of them ahead of it.

Assays:
[1] = biological target: microtubule (tubulin) (Sus scrofa) (UniProt Q2XVP4); conditions: cited from earlier work
[2] = biological target: microtubule (tubulin) (Sus scrofa) (UniProt Q2XVP4); conditions: cited from earlier work; remark: listed apart in the source
[3] = biological target: microtubule (tubulin) (Sus scrofa) (UniProt Q2XVP4); conditions: cited from earlier work; remark: listed apart in the source
[4] = biological target: paclitaxel-stabilised microtubules (polymerised αβ-tubulin) (bovine) (UniProt Q6B856)
[5] = biological target: paclitaxel-stabilised microtubules (polymerised αβ-tubulin) (bovine) (UniProt Q6B856); remark: listed apart in the source
[6] = biological target: paclitaxel-stabilised microtubules (polymerised αβ-tubulin) (bovine) (UniProt Q6B856); assay: co-sedimentation; ADP state (1 mM ADP); 2.5 μM MKLP2-MD with 0–10 μM polymerised tubulin (paclitaxel-stabilised MTs), BRB80 plus 25 mM NaCl, 25°C, 100,000 × g; quadratic fit assuming 1:1 motor:tubulin dimer; apparent
[7] = biological target: paclitaxel-stabilised microtubules (polymerised αβ-tubulin) (bovine) (UniProt Q6B856); assay: co-sedimentation; AMPPNP state (1 mM nucleotide); 2.5 μM MKLP2-MD with 0–10 μM polymerised tubulin (paclitaxel-stabilised MTs), BRB80 plus 25 mM NaCl, 25°C, 100,000 × g; quadratic fit assuming 1:1 motor:tubulin dimer; apparent
[8] = biological target: paclitaxel-stabilised microtubules (polymerised αβ-tubulin) (bovine) (UniProt Q6B856); assay: co-sedimentation; ADP.AlFx state (1 mM nucleotide); 2.5 μM MKLP2-MD with 0–10 μM polymerised tubulin (paclitaxel-stabilised MTs), BRB80 plus 25 mM NaCl, 25°C, 100,000 × g; quadratic fit assuming 1:1 motor:tubulin dimer; apparent
[9] = biological target: paclitaxel-stabilised microtubules (polymerised αβ-tubulin) (bovine) (UniProt Q6B856); assay: co-sedimentation; no nucleotide (NN, apyrase-treated); 2.5 μM MKLP2-MD with 0–10 μM polymerised tubulin (paclitaxel-stabilised MTs), BRB80 plus 25 mM NaCl, 25°C, 100,000 × g; quadratic fit assuming 1:1 motor:tubulin dimer; apparent

Molecule: Kin3 (Kif1a) motor domain (from UniProt P33173)
Kd [1]: 6.8 nM
Kd [2]: 5.9 nM
Kd [3]: 4.2 nM

MT-stimulated steady-state ATPase, K0.5,MT (Michaelis Menten fit of velocity against [tubulin]) [4]: 0.93 µM
B1: MKLP2 motor domain, construct 1–520 (domain or fragment)
chain: MSHRILSPPAGLLSDEDVVDSPILESTAADLRSVVRKDLLSDCSVISASLEDKQALLEDTSEKVKVYLRIRPFLTSELDRQEDQGCVCIENTETLVLQAPKDSFALKSNERGVGQATHKFTFSQIFGPEVGQVAFFNLTMKEMVKDVLKGQNWLIYTYGVTNSGKTYTIQGTSKDAGILPQSLALIFNSLQGQLHPTPDLKPLLSNEVIWLDSKQIRQEEMKKLSLLIGGLQEEELSTSVKKRVHTESRIGASNSFDSGVAGLSSTSQFTSSSQLDETSQLWAQPDTVPVSVPADIRFSVWISFFEIYNELLYDLLEPPSHQHKRQTLRLCEDQNGNPYVKDLNWIHVRDVEEAWKLLKVGRKNQSFASTHMNQQSSRSHSIFSIRILHLQGEGDIVPKISELSLCDLAGSERCKHQKSGERLKEAGNINTSLHTLGRCIAALRQNQQNRSKQNLIPFRDSKLTRVFQGFFTGRGRSCMIVNVNPCASTYDETLHAAKFSALASQLVHAPPVHLGIPSLH

MT-stimulated steady-state ATPase, K0.5,MT (Michaelis Menten fit of velocity against [tubulin]) [5]: 1.07 µM
Kd [6]: 363 nM
Kd [7]: 43 nM
Kd [8]: 355 nM
Kd [9]: 43 nM
B2: MKLP2 motor domain, construct 25–520 (domain or fragment)
chain: ESTAADLRSVVRKDLLSDCSVISASLEDKQALLEDTSEKVKVYLRIRPFLTSELDRQEDQGCVCIENTETLVLQAPKDSFALKSNERGVGQATHKFTFSQIFGPEVGQVAFFNLTMKEMVKDVLKGQNWLIYTYGVTNSGKTYTIQGTSKDAGILPQSLALIFNSLQGQLHPTPDLKPLLSNEVIWLDSKQIRQEEMKKLSLLIGGLQEEELSTSVKKRVHTESRIGASNSFDSGVAGLSSTSQFTSSSQLDETSQLWAQPDTVPVSVPADIRFSVWISFFEIYNELLYDLLEPPSHQHKRQTLRLCEDQNGNPYVKDLNWIHVRDVEEAWKLLKVGRKNQSFASTHMNQQSSRSHSIFSIRILHLQGEGDIVPKISELSLCDLAGSERCKHQKSGERLKEAGNINTSLHTLGRCIAALRQNQQNRSKQNLIPFRDSKLTRVFQGFFTGRGRSCMIVNVNPCASTYDETLHAAKFSALASQLVHAPPVHLGIPSLH
